1 compound from US9176064B2, “Bisubstrate fluorescent probes for protein kinase CK2” (University of Tartu, priority 2012, dated 2015) can be followed below.

Where a SMILES comes first, the peptide text is derived from it. [ ]: non-standard residue; d: D form. The star is where a group is joined. X1 = O=C(CCCCCCCn1cnc2c(Br)c(Br)c(Br)c(Br)c21)*

Targets include DYRK1A (Homo sapiens, UniProt Q13627); PAK6 (Homo sapiens, UniProt Q9NQU5); Lck (Homo sapiens, UniProt P06239); PLK1 (Homo sapiens, UniProt P53350); MNK1 (Homo sapiens, UniProt Q9BUB5); CSK (Homo sapiens, UniProt P41240); HIPK2 (Homo sapiens, UniProt Q9H2X6); ROCK 2 (Homo sapiens, UniProt O75116); MARK2 (Homo sapiens, UniProt Q7KZI7); SIK2 (Homo sapiens, UniProt Q9H0K1).
Assay in all cases: Kinase panel residual activity
Common to all, as to type: biochemical
Details in all cases: compound at 1 micromolar

Another data set concerns the target T1, EIF2AK3 (Homo sapiens, UniProt Q9NZJ5).
T1 sequence (Q9NZJ5 30-1116): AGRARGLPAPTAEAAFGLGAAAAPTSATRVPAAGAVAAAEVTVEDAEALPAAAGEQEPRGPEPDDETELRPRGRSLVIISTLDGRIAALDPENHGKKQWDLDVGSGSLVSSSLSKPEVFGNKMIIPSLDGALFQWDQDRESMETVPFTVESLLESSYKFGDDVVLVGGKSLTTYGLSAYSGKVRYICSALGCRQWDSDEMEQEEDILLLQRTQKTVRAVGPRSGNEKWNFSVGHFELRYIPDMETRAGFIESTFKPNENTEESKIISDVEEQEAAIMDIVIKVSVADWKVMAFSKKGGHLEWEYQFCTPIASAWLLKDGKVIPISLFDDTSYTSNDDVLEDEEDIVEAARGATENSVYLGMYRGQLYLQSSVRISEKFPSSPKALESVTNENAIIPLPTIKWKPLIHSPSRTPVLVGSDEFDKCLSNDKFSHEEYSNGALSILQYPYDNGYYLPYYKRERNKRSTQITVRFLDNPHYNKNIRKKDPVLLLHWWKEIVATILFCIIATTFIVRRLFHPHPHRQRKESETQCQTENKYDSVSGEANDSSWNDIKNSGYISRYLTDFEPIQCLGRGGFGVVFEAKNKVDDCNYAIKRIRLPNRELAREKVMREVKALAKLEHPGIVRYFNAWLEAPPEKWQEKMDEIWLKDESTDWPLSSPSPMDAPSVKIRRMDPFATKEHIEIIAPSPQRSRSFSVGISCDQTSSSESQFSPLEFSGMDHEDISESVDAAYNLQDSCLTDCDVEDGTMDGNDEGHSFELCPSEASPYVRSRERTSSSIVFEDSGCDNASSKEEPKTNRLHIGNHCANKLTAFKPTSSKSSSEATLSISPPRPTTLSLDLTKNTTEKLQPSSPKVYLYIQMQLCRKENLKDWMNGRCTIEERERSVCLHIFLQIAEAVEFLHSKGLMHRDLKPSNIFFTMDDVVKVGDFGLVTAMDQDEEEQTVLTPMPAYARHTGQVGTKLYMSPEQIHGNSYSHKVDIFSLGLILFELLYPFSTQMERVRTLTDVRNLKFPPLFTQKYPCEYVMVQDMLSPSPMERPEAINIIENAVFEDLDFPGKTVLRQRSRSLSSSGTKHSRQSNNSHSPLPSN

In a further data set the target is T2, EPH-B4 (Homo sapiens, UniProt P54760).
T2 sequence (P54760 16-987): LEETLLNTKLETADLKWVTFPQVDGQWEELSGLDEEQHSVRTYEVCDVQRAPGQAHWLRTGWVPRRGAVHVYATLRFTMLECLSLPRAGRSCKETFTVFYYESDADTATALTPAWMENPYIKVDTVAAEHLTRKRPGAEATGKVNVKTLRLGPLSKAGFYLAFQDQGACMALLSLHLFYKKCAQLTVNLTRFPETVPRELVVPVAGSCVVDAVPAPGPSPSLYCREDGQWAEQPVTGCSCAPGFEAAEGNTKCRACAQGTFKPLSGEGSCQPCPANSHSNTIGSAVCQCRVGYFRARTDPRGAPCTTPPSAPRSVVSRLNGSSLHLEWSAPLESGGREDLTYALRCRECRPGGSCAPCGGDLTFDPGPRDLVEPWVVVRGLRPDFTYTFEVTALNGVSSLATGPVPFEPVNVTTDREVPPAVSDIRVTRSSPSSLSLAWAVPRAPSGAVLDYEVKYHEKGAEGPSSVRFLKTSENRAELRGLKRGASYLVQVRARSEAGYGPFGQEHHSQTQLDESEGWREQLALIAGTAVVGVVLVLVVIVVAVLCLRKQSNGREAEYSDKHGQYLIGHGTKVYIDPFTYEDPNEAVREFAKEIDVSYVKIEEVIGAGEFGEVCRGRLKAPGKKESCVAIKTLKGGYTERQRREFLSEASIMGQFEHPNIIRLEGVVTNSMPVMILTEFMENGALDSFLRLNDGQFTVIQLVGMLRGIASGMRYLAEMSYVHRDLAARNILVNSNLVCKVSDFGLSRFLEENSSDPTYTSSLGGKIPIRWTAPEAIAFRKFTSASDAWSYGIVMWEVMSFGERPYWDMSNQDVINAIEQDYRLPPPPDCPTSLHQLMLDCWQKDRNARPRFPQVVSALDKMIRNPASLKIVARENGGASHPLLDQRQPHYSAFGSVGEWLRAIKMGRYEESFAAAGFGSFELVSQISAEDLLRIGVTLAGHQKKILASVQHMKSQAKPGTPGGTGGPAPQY

Sequence of HIPK2 (Q9H2X6 whole entry, species assumed): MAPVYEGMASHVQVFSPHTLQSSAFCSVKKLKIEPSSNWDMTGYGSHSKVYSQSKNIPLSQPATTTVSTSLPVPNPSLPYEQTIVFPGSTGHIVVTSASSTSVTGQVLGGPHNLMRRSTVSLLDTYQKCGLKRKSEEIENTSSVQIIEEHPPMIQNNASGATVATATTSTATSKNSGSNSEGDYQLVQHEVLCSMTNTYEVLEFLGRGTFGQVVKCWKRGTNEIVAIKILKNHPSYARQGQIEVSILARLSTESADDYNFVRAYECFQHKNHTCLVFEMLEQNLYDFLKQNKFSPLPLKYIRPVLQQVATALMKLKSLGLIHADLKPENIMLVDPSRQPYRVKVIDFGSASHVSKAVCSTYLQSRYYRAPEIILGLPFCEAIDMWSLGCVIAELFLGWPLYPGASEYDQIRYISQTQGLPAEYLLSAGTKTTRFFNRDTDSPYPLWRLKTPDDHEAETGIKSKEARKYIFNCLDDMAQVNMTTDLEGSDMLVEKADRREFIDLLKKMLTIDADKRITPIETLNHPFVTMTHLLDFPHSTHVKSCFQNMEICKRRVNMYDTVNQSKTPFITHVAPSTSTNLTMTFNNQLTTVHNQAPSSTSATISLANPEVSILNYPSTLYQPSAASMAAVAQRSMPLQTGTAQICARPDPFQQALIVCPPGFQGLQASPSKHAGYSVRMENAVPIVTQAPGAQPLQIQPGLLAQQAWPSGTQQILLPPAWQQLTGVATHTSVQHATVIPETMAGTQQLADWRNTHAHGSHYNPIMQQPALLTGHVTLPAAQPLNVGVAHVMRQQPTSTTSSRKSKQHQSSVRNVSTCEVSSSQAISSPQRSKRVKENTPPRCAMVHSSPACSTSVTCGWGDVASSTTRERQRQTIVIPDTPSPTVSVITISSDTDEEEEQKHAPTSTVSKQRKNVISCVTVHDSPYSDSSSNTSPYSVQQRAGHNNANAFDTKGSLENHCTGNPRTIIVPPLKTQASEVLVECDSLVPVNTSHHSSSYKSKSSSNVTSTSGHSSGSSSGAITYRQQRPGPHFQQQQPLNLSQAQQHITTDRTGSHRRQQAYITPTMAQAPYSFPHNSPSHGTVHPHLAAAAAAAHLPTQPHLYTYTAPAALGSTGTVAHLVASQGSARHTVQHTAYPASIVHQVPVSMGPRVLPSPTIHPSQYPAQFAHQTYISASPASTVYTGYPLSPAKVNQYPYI
Sequence of Lck (P06239 whole entry, species assumed): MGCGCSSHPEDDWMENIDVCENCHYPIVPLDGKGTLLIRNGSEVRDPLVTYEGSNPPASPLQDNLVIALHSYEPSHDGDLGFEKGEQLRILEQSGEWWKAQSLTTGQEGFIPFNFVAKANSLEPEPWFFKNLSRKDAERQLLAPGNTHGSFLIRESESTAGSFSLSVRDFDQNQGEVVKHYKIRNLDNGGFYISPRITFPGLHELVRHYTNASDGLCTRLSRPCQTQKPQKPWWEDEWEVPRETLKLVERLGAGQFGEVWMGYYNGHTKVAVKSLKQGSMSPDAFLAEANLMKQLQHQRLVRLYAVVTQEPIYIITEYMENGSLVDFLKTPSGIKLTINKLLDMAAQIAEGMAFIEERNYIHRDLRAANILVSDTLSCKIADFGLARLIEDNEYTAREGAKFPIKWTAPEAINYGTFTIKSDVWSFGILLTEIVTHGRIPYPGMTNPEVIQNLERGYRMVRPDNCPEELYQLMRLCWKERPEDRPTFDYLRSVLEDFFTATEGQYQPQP
Sequence of SIK2 (Q9H0K1 whole entry, species assumed): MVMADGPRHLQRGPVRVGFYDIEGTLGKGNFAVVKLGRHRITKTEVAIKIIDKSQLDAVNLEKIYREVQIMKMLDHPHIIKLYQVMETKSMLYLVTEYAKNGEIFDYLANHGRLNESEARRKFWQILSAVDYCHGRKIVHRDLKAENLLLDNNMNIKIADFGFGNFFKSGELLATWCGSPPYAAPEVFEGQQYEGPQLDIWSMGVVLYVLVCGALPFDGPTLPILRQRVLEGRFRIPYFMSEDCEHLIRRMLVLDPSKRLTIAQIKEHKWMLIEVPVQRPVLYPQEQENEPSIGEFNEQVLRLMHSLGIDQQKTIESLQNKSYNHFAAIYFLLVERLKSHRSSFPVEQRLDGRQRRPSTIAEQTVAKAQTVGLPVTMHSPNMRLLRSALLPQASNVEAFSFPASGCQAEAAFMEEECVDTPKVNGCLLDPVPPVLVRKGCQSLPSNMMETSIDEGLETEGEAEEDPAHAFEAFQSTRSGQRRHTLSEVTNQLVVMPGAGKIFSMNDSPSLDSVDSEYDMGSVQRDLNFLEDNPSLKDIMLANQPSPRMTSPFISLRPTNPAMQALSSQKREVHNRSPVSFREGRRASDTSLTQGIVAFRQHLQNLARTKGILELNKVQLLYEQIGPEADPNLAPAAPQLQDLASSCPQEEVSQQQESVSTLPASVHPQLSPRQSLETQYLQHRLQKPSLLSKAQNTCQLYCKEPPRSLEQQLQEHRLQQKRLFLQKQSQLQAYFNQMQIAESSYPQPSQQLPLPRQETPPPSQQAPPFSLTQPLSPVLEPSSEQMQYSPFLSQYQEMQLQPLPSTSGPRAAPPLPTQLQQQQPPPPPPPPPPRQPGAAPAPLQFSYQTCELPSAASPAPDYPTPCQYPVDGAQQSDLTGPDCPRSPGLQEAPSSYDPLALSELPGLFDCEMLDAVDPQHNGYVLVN
Sequence of MNK1 (Q9BUB5 whole entry, species assumed): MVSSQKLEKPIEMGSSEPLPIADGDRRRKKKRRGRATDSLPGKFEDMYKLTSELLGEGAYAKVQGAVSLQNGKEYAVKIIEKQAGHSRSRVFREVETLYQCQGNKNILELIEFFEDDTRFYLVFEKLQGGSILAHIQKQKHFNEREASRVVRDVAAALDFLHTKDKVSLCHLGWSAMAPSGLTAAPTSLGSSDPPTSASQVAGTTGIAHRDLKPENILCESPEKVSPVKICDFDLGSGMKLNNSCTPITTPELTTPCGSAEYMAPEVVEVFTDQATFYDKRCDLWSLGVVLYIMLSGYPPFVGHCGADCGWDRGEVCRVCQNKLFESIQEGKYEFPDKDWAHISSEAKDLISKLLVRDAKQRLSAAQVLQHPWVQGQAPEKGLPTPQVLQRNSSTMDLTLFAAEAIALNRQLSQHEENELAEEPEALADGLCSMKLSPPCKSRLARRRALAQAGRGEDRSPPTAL
Sequence of CSK (P41240 whole entry, species assumed): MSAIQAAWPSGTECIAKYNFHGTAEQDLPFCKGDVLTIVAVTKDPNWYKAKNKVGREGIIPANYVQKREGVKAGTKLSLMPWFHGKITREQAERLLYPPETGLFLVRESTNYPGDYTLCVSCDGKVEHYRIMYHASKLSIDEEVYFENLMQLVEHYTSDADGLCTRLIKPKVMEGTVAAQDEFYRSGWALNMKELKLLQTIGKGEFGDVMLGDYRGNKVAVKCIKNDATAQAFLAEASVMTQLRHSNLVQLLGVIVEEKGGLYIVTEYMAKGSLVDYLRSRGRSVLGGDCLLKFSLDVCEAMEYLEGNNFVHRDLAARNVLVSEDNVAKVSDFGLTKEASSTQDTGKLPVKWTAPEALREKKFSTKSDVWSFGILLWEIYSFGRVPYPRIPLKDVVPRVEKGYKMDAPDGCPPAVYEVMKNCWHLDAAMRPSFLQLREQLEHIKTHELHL
Sequence of MARK2 (Q7KZI7 whole entry, species assumed): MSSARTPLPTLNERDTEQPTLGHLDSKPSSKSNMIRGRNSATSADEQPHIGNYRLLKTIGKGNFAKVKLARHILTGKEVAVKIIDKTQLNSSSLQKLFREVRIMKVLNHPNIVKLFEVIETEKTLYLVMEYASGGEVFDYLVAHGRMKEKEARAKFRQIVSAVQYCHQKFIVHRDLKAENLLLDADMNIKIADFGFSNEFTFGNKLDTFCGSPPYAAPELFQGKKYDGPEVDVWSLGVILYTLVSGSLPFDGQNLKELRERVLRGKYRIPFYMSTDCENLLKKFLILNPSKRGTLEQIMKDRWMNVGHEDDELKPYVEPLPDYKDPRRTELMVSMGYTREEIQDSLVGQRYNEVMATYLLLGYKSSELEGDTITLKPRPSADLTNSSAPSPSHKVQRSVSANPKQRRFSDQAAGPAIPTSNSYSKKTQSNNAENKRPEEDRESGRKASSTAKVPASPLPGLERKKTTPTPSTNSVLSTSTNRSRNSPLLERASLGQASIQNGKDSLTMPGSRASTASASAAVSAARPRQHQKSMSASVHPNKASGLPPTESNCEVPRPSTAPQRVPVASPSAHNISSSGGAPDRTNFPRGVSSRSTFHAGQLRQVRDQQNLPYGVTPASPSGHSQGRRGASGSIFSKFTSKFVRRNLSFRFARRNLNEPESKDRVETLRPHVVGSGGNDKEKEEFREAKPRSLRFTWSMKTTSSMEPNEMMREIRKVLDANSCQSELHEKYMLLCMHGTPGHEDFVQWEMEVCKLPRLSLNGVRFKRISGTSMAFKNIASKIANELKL
Sequence of PAK6 (Q9NQU5 whole entry, species assumed): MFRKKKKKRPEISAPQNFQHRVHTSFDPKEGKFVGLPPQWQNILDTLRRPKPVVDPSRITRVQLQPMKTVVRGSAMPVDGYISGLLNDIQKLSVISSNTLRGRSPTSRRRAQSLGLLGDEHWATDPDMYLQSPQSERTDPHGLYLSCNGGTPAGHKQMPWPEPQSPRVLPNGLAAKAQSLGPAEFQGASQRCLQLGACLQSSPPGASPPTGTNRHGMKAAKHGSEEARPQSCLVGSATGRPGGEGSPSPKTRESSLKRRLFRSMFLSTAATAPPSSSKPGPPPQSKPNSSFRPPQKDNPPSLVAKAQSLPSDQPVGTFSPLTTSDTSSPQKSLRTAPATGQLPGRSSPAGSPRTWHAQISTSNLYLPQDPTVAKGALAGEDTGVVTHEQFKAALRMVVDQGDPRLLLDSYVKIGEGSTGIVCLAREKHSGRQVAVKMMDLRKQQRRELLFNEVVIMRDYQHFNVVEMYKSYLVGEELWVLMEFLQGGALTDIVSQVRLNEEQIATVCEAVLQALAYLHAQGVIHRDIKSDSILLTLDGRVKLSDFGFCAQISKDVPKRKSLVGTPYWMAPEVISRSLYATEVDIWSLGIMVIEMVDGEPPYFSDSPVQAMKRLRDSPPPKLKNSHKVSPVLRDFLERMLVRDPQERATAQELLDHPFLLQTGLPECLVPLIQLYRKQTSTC

Regarding `NCCCC[C@H](NC(=O)[C@H](CC(=O)O)NC(=O)[C@H](CC(=O)O)NC(=O)[C@H](CC(=O)O)NC(=O)[C@H](CC(=O)O)NC(=O)[C@H](CC(=O)O)NC(=O)[C@@H](CC(=O)O)NC(=O)CCCCCCCn1cnc2c(Br)c(Br)c(Br)c(Br)c21)C(=O)O` [TBBI-OcA-(D-Asp)-(L-Asp)5-(L-Lys)-OH] (X1-[dD]DDDDDK-OH), the remaining activity (in general, the signal under treatment as a percentage of the control signal) at 1 µM with DYRK1A is 36%; with PAK6, 86%; with Lck, 62%; with PLK1 it was 18%; with MNK1 it was 99%; in the data set with CSK it was 92%. The remaining activity at 1 µM in the data set with HIPK2 was 36%; in the data set with EIF2AK3, 71%; with ROCK 2, 91%; in the data set with EPH-B4, 104%; in the data set with MARK2, 66%; in the data set with SIK2 it was 74%.
